Test results as given in publication PMC9084231.

Assays:
Protein S (Homo sapiens) = Protein S (Homo sapiens) (UniProt P07225); settings: cited from earlier work
[1] = molecular target: PRP6-HO7 (Proline-rich Protein domain CCP6 heptamerized) (human) (UniProt P04003); experiment: SDS-PAGE under reducing and non-reducing conditions; 4-12% gradient SDS-PAGE of the purified proteins, Coomassie (Blue Safe) staining and Western blot with anti-6xHis and anti-C4BP α-chain antibodies; reduced against non-reduced size

Chain of UniProt P07225 (P07225 42-676): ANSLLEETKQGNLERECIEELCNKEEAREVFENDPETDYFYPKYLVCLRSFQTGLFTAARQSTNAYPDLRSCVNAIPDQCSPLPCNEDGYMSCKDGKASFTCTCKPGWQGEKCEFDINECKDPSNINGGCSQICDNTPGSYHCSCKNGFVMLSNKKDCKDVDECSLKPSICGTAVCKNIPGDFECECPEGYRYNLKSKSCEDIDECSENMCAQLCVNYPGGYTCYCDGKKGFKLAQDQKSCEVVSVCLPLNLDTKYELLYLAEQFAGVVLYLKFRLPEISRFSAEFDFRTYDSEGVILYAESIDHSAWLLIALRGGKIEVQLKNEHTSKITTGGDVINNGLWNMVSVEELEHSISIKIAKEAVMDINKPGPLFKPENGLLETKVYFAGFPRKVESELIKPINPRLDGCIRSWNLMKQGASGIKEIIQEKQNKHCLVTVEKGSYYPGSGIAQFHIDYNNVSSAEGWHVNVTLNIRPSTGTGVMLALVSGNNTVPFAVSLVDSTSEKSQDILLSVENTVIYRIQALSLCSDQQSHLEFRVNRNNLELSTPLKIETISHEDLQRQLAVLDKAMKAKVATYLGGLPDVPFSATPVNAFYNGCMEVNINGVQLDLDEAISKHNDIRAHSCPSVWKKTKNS

| Substance | Kd (Protein S (Homo sapiens)) | stoichiometry N [1] |
| --- | --- | --- |
| C4BP beta-chain CCP1 (from UniProt P20851) | 0.1 nM |  |
| PRP6-HO7 (Proline-rich Protein domain CCP6 heptamerized) (from UniProt P04003 540-597) |  | 7 |
